Test results published in the supplement of paper PMC12764529.

Test: folding stability dG unfold (combined trypsin and chymotrypsin); higher = more stable
Experimental: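 Folding stability of de novo designed mini-proteins (<80 aa, no Cys; designed by TrROS, TrMRF, ProteinMPNN and the joint model) was measured by cDNA display proteolysis with trypsin and chymotrypsin. Each protease was used at 11 concentrations in a threefold dilution series plus a no-protease condition. K50 was inferred by Bayesian fitting of sequencing counts, and dG unfold was derived against a sequence-predicted unfolded-state K50 (Tsuboyama et al. method). Sequences shown include variable-length N-terminal GS-type padding (SAGGSAGG...) inside a display construct carrying a PA tag. Rows were kept only if the AF2 dimer inter-PAE was >15, to exclude likely homo-oligomers.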

Folding stability dG unfold, < -1 kcal/mol:
SAGGSAGGSAGGYRIKIKMPNGRPREIPLEPDDPEEVKEQAKELSSRGYDVTKVEVEPPSAGGSAGGSAGGS [r10_231_TrROS]
SAGGSAGGSAGITITQNPDGPVRIMWKHPNGKPVNEGDIKPDEAEKFADKNGMRPVSIEPSAGGSAGGSAGG [r11_521_TrROS]
SAGGSAGGSAGKIEVETNPENNYMRVKITNPGNGKKIKIPVPNGNPSDARDKAKELILEFSAGGSAGGSAGG [r17_386_TrROS]
SAGGSAGGSAGKRIIINMPAEQAIDWAREMLPPNQPIEIFNPDHGKTREFPIPPPSPDEKSAGGSAGGSAGG [r11_163_TrROS]
SAGGSAGGSAGKTISLKELMKNGNPEKALEFLKKIKEANPKPKIKLIEIDENFDAKYDINSAGGSAGGSAGG [r11_365_TrMRF]
SAGGSAGGSAGLEIPPELTVTSTFTVPPSGRRVLELLNPATNEPVVLDLETGEIHPSEALSAGGSAGGSAGG [r11_268_JUSTAS]
SAGGSAGGSAGLLPPGARVRLTLRAPGEPEELEFTIPASVPSVEELIERHPPVLAVEVVGSAGGSAGGSAGG [r11_157_JUSTAS]
SAGGSAGGSAGMEEIKERYRKELEAEGRPVKEIKAEKLPPTNTIVVTLDFENKPIVIPLPSAGGSAGGSAGG [r11_279_JUSTAS]
SAGGSAGGSAGMKLEELAKEAEERYREEGGDAVIDLVVEREDDKKEPFILEIGKKGLKIESAGGSAGGSAGG [r11_954_TrMRF]
SAGGSAGGSAGMKTFTAPSGEKLVEVTIKTKNKEISVTVPPEEGGEAVAKKYGVSKKDIASAGGSAGGSAGG [r11_1039_JUSTAS]
SAGGSAGGSAGMPVIEEKLVFYTGDGTPREKKVKVTTTPLPNGTTKKTYDIPKDEIKKLPSAGGSAGGSAGG [r11_816_JUSTAS]
SAGGSAGGSAGMTPEEAEKEAAEKIKNELIAKGYPEAKVEVKSPVKVDEVNNTFTLDIDIKKSAGGSAGGSA [r18_517_JUSTAS]
SAGGSAGGSAGMTVEVKKLSTPRYEKIITITTETTVKDPNSAKPLTTETVTTIERDEVSLSAGGSAGGSAGG [r17_124_JUSTAS]
SAGGSAGGSAGMVETTSEEEAAAVIAEARAAGVPVTLVLKNPDGTTVTTPVEVVVPPDAPSAGGSAGGSAGG [r17_462_JUSTAS]
SAGGSAGGSAGMVRIKITHNNGRKNTFKIPPNITEVKEVEIKLPPELQDNITKVEIEPLDSAGGSAGGSAGG [r17_528_TrROS]
SAGGSAGGSAGNVITFPDGYYIRVTGPGPREIPIPPENAEDFVDEISKLPGIQDIEIQPRSAGGSAGGSAGG [r11_587_TrROS]
SAGGSAGGSAGPRVTLTPDPNSDYVLVTTYPGDGSSTTSNVPVSELEKVRKELPADFTLASAGGSAGGSAGG [r11_569_JUSTAS]
SAGGSAGGSAGPWKVITHTIDIPPGADELPIRLPGNGIEAKIMSVDPGNGTITVEIYVPDSAGGSAGGSAGG [r17_198_TrROS]
SAGGSAGGSAGSEELAKEIEDIAQEQGFPIKDVEIERNPPNGYYSIEVRHKGNPVTIPIPSAGGSAGGSAGG [r11_279_TrROS]
SAGGSAGGSAGSNKVSPVITLEEDPDGTVTRTVTLKINTPEGKTLTTTSTDPLSPDSALKRSAGGSAGGSAG [r3_180_JUSTAS]
SAGGSAGGSAGSTEIGVYKLEGTDKVLVLAKKPNGSEVPVEFPASVTPEEAVEKAKKVVSSAGGSAGGSAGG [r17_161_TrMRF]
SAGGSAGGSAGSVAEALADKTITVTSPSSSTPYTATITPGADDTLRVGSPGSSGTDISVARLSAGGSAGGSA [r18_169_JUSTAS]
SAGGSAGGSAGTLDELKNAPPGEERTVRVDFQIYEMRPDPNGKPEMEPVSPMRMEITFKPSAGGSAGGSAGG [r11_36_TrROS]
SAGGSAGGSAGTVTEKTSIPDPNSDNSLTVTKTPNSITMTNPKTGDVIISNNSTVTKIKKSAGGSAGGSAGG [r17_544_JUSTAS]
SAGGSAGGSAGTVVVITPKNGEKFVFEAESSELPKIKEAFPELKIKDIDPGKGFIHVEVDSAGGSAGGSAGG [r17_22_TrMRF]
SAGGSAGGSAGVDFFKAPDGSEYAVVVARGKDADIPVLTRVDDGNDALAERFGLPKEKIGSAGGSAGGSAGG [r11_1039_TrMRF]
SAGGSAGGSAGVKEIADKFPGIKSIDVQRNKNGEQTVSIEHRSKGGPVKHTFPAEDLEPLSAGGSAGGSAGG [r17_116_TrROS]
SAGGSAGGSAGVPPDAPEVVVTLTLRPPGPDTTVTLTVPAAELPPEAIPPGTVVERAVSPGASAGGSAGGSA [r18_21_JUSTAS]
SAGGSAGGSAGWEMLRMIKENAKPGKPTTITIHPNFPMEEINKELIEDAPIDDVEYTPMPSAGGSAGGSAGG [r11_524_TrROS]
SAGGSAGGSAGWFYRIEIPHPNGRKRTHYVPDPEEAEDELKEEFGIPPENVKIEPIPPNDSAGGSAGGSAGG [r17_169_TrROS]
SAGGSAGGSAGWKISVRMPDNGKPRRVPIEIPFDADDPQYFKEIANDLANDGIREVEIYPSAGGSAGGSAGG [r11_196_TrROS]
SAGGSAGGSAGWRVRVSFPNGNKIEIDEIPPDDEGMTPDQLADEIQKEFPGNGIEVEPVPSAGGSAGGSAGG [r17_42_TrROS]
SAGGSAGGSAKIIVWGRTPEGAKEKAKEFADNIQKEMQENGMPPKNIKIPIEIFDPEAMPDSAGGSAGGSAG [r3_249_TrROS]
SAGGSAGGSAKTYIIPIKDLGPDENGKYHIDIAVEKVKKLFPDENITSVDIDGFEKIGELAESAGGSAGGSA [r18_72_TrMRF]
SAGGSAGGSAMDPDDQLPTIEEIAKKFGMDATIEPRRNPNGMPYRTATVQNNGGPVGEISIPSAGGSAGGSA [r18_369_TrROS]
SAGGSAGGSAMSPSLPGKYEVLLTDPRPGVGPPVTRRVTLTPEEIEATIPPGAGREVVELPSAGGSAGGSAG [r3_223_JUSTAS]
SAGGSAGGSAMTLLSEKEVPGTDLTIKYVEEKLPGERVIRTLTIKKNSVVEEKEFPVGELPSAGGSAGGSAG [r3_48_JUSTAS]
SAGGSAGGSANFDINIEPHPDKDYLVITVTIPPGMPPGQKVRTWVIDPPDGKILEPEPIKIPDSAGGSAGGS [r12_564_TrROS]
SAGGSAGGSAPFTAKEAADYAAWKIQKRLKKEGNPDKEITIKAPIEWDPEDGIFRAKIQIEYSAGGSAGGSA [r18_517_TrROS]
SAGGSAGGSAPKPIERVEVGSFTLPPGRRVFPVRARIRGTGEVVVVATDGAPVEEVLKAVEASAGGSAGGSA [r18_345_TrMRF]
SAGGSAGGSAREITIMVPPDDPNLTIEEAKDLLQPWGIKKVEIEPHPDGYYIVEIRVPPGLSAGGSAGGSAG [r3_335_TrROS]
SAGGSAGGSASPKQVPITIEIQTPNKPRKITFPIPEGQEGGPEEIMDRLADDGNYKIDRITSAGGSAGGSAG [r3_31_TrROS]
SAGGSAGGSASSTTVPLEIPAPEGAVVELTFPDGTTVKATVTPRPDGSYTLKVGNGEIVAPRSAGGSAGGSA [r18_372_JUSTAS]
SAGGSAGGSASSTVLETEEEPVGKVTTEKVLVPRPDGTPVLRTKLVYRPKDGSLTSETTSLSAGGSAGGSAG [r3_94_JUSTAS]
SAGGSAGGSATIRPGEPIRIKIKYPNPDGKPQERTYNGNVPPGSTLEELADNFPGYKVEIEKSAGGSAGGSA [r18_279_TrROS]
SAGGSAGGSDKEREVPIEVRYPNQPLKIPVEFKDEEDAPHKARSAIKPLMKKLPMVKIPKPDDSAGGSAGGS [r12_230_TrROS]
SAGGSAGGSDPNIKVEIWHPNNGQPRTFPAGDSIDELAENMPGPVQIKIEYPGKEKTLMIPFKSAGGSAGGS [r12_1056_TrROS]
SAGGSAGGSEIEIMAPFKSPEDARDQIREFAREKGLEIKPKKIEVHRNPNGWQWVTFKIEIKDSAGGSAGGS [r12_924_TrROS]
SAGGSAGGSEKYRVRFPDGQPLPFPNGKSHPMKPGEEMEIESPEDKDRLKDHFPGFPVEVEPLSAGGSAGGS [r12_987_TrROS]
SAGGSAGGSFEVHYDPEPNNLTIRMEFPGGRRTYRIPSADDVKDWFEDMGMPFKPMEITKIEPSAGGSAGGS [r12_834_TrROS]
SAGGSAGGSGEFLSDLPPDWEVSTEPLPSDTVRYTVTAPTGPVSAVSLPVGDREVRTSATPPVSAGGSAGGS [r20_50_JUSTAS]
SAGGSAGGSGGLGGEPISVRTELVTVPVELEEEVLLPGGVPLPRRRTVERVVAVTTRVPPGAALSAGGSAGG [r6_526_JUSTAS]
SAGGSAGGSGKKYILRFKNPEKARSFAKPLGLKVKPGDDLPVDDPEKFLKSLPLLKDIVVEDKSAGGSAGGS [r12_571_TrMRF]
SAGGSAGGSGMAVVEVDITGPTSTSEEEAQARAEALAAEIAAASDSADVRATVRFSRVPPELPSAGGSAGGS [r12_522_JUSTAS]
SAGGSAGGSGSGSVTVPVTSTDPVTGKPSVSTVTVSLDVVPPPPVPATVFFDPVRGRRSTDLGGSAGGSAGG [r6_926_JUSTAS]
SAGGSAGGSHWAEELAKEAGLKVKIDDMMKNPDGYPYVIVKIKPPDGGKRTVMFDGNQPRIYPSAGGSAGGS [r12_279_TrROS]
SAGGSAGGSKIKIEDIHPNPNGMFMFRIRPPDNGKPREVPFDSPEDAERFADELEEDGYKIEISAGGSAGGS [r20_177_TrROS]
